Measurements from article PMC5783996.

Biological target: Botryococcus braunii light-harvesting complexes (BB LHCII), apoproteins of the trimeric fraction B3 (Botryococcus braunii (endogenous in strain CCALA778 thylakoids))
Assay: sucrose density gradient ultracentrifugation; thylakoids solubilised with 1% α-DM (also OG) at room temperature, complexes separated on a sucrose density gradient; bands assigned by position (MW)

- stoichiometry N: 3
Substance: Botryococcus braunii light-harvesting complexes (BB LHCII), apoproteins of the trimeric fraction B3
